Results taken from the supplement of paper PMC10567573.
± gives the standard deviation.

Test: protein stability index of a GFP-peptide fusion (GPS, HEK-293T) (PSI 1-6); higher = more stable
[1] = treatment: DMSO, c terminus: a fixed tail appended
[2] = treatment: MLN4924 1 uM, 8 h, c terminus: a fixed tail appended
[3] = treatment: DMSO, c terminus: native
[4] = treatment: MLN4924 1 uM, 8 h, c terminus: native
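Further: 24-mer peptide tiles fused after GFP, lentivirally expressed, FACS-sorted into six equal bins by GFP/DsRed ratio, decoded by Illumina sequencing, PSI is the read-weighted mean bin number.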

| Sequence | protein stability index [1] | protein stability index [2] | protein stability index [3] | protein stability index [4] |
| --- | --- | --- | --- | --- |
| RCEELEDARYKLHHHLHKTLREIT [TEKT4] | 2.81 ± 0.29 | 2.8 ± 0.25 | – | – |
| RDAGATPSAAGAPASAPGEPRQRR [ANKRD9] | 5.57 ± 0.27 | 5.59 ± 0.19 | – | – |
| RDFRPTDQEEIKTLERYMCSRFFI [TENT5C] | 2.63 ± 0.39 | 2.71 ± 0.17 | – | – |
| RDSAYQSITHYRPVSASRSSLDLS [EMD] | 3.41 ± 0.18 | 3.58 ± 0.22 | – | – |
| REAQQYSEALASTRILKHSPESSR [GLIPR2] | 4.92 ± 0.27 | 4.92 ± 0.3 | – | – |
| REFDVRQTPQVNINPFTPDSLLLH [WEE1] | 3.41 ± 0.47 | 3.52 ± 0.15 | – | – |
| REHRVRRIHVRRHITHDERPHGQQ [KCTD13] | 4.36 ± 0.21 | 4.45 ± 0.29 | – | – |
| REQSRLTSCLKKREEMKLKECVSI [TNFSF13B] | 3.62 ± 0.11 | 3.81 ± 0.24 | – | – |
| RERKKLVLENLEDSCVLTGPDDSL [TRIB3] | 4.91 ± 0.26 | 4.95 ± 0.36 | – | – |
| RFCLVPSMEGVRWAFSCGTWLPSR [AASDHPPT] | 2.48 ± 0.79 | 2.32 ± 0.056 | – | – |
| RFGDRMFYKDWWNSTSYSNYYRTW [SOAT1] | 1.92 ± 0.23 | 2.04 ± 0.34 | – | – |
| RFLRMLLRLADEFGVAVVITNQVV [RAD51] | 2.46 ± 0.45 | 2.45 ± 0.84 | – | – |
| RGQARRLAPNFRWAIPNRQINDGM [BEX3] | 3.1 ± 0.24 | 3.03 ± 0.47 | – | – |
| RHMEAVKAQLLEQAQGQLRELLDR [SOAT2] | 3.07 ± 0.37 | 3.08 ± 0.086 | – | – |
| RIHVRRHITHDERPHGQQIVFKD [KCTD13] | – | – | 4.31 ± 0.24 | 4.33 ± 0.32 |
| RILVGNRLHLAFKRQVPTEQARAY [RAB40C] | 2.29 ± 0.26 | 2.56 ± 0.27 | – | – |
| RKDHLKNHLQTHDPNKMAFGCEEC [PLAGL1] | 4.77 ± 0.16 | 4.93 ± 0.54 | – | – |
| RKNPYPTKGEKIMLAIITKMTLTQ [IRX6] | 2.61 ± 1 | 2.74 ± 0.62 | – | – |
| RKRMKMDKTCSKTKNKSKHALRKK [FAM9B] | 4.23 ± 0.45 | 4.66 ± 0.3 | – | – |
| RLIRKMFSFKVSRWMGLACFRSLA [CCDC70] | 2.35 ± 0.46 | 2.29 ± 0.45 | – | – |
| RLREAAALGDIREVQKLVESGVDV [ANKRD40] | 4.28 ± 0.23 | 4.19 ± 0.077 | – | – |
| RMAIGYLHSHRHLYPEGIGARQQQ [POMT2] | 2.9 ± 0.22 | 3.08 ± 0.21 | – | – |
| RMLVAASWACAFTNALTHTVAMST [OR3A1] | 3.07 ± 0.24 | 3.18 ± 0.5 | – | – |

| Sequence | protein stability index [1] | protein stability index [2] | protein stability index [3] | protein stability index [4] |
| --- | --- | --- | --- | --- |
| RNPVSLVVTRLVILGSGEEGPQVG [ADAMTS4] | 2.83 ± 0.2 | – | – | – |
| RNYLNYGEEGAPGKWQQQGDLQDT [CHGB] | 4.86 ± 0.14 | 4.94 ± 0.39 | – | – |
| RPELGAALGIYGAPYAAAAAAQSY [IRX6] | 2.73 ± 0.12 | 2.92 ± 0.46 | – | – |
| RPNRQLGSMVEIAKQLQAVKRKIR [TRIM39] | 2.85 ± 0.43 | 3.03 ± 0.27 | – | – |
| RPRPQGRSVSEPRDQHPQPSLGDS [RTN2] | 5.04 ± 0.31 | 5.296 ± 0.046 | – | – |
| RPTYTPPSIMPQKHWVYVKRGGNC [ZBTB22] | 2.78 ± 0.25 | 3.06 ± 0.32 | – | – |
| RQFEFSVDSFQIILDSLLFFYDCS [TENT5C] | 3.06 ± 0.57 | 3.04 ± 0.61 | – | – |
| RRGRHEQSPTSRPRKVSSLPPRSC [C22orf15] | 4.35 ± 0.066 | 4.61 ± 0.22 | – | – |
| RRVKLQLWDTSGQGRFCTIFRSYS [RAB40B] | 2.21 ± 0.57 | 2.08 ± 0.32 | – | – |
| RSKSGSEEVLCDSCIGNKQKAVKS [TRIM29] | 4.96 ± 0.31 | 5.19 ± 0.11 | – | – |
| RSLENYHFVDEHGKDQGINIRQKV [CLINT1] | 3.77 ± 0.23 | 3.75 ± 0.4 | – | – |
| RSVSLSMRKSGAMKKGGIFSAEFL [BNIP3L] | 2.8 ± 0.3 | 2.95 ± 0.34 | – | – |
| RTPEPLEEFPKREDQEGSPPETSL [MYBL2] | 5.4 ± 0.36 | 5.56 ± 0.23 | – | – |
| RTTPSRREITGVQAQPGEATSGPP [PALM] | 5.25 ± 0.35 | 5.2 ± 0.093 | – | – |
| RVKFRRQEANARERNRMHGLNDAL [NEUROD6] | 3.37 ± 0.18 | 3.43 ± 0.34 | – | – |
| RVTNVGSLLLTPQENESLFTFLGK [WASL] | 2.84 ± 0.27 | 3.19 ± 0.27 | – | – |
| RWTFEKACHPFLLGPPLVRKRIHD [TOR1AIP2] | 2.64 ± 0.18 | 2.76 ± 0.33 | – | – |
| RYEPLPPSLPAAGEQDCCGERVVI [KCNA3] | 4.04 ± 0.16 | 4.08 ± 0.34 | – | – |
| SAAGPPLSEDDKLQGAASHVPEGF [EHMT1] | 5.31 ± 0.3 | 5.21 ± 0.11 | – | – |
| SAHPVEVFSFDLHEPLSKERVEAF [TMEM175] | 3.82 ± 0.19 | 3.82 ± 0.3 | – | – |
| SALGPPPAASNSSDLFDLMGSSQA [CLINT1] | 4.7 ± 0.22 | 4.49 ± 0.2 | – | – |
| SALSDTEIQREIGISNALHRLKLR [PPFIA4] | 4.2 ± 0.27 | 4.17 ± 0.25 | – | – |
| SDAANRNHEALRQAKQEMNESRRQ [PRPH] | 5.2 ± 0.26 | 4.96 ± 0.34 | – | – |

| Sequence | protein stability index [1] | protein stability index [2] | protein stability index [3] | protein stability index [4] |
| --- | --- | --- | --- | --- |
| SDFLTLHSIIISLVEAGAHTDMTN [FEM1B] | 2.87 ± 0.43 | 2.93 ± 0.54 | – | – |
| SDLFDLMGSSQATMTSSQSMNFSM [CLINT1] | 2.42 ± 0.22 | 2.66 ± 0.24 | – | – |
| SDSPDAADSTSFDVQLGDIILTAT [PPTC7] | 3.98 ± 0.27 | 4.01 ± 0.18 | – | – |
| SEAPNEKLFFVDTGSKEKGLTKKR [NOP53] | 4.98 ± 0.44 | 5.37 ± 0.15 | – | – |
| SEFLKRFVEATRKWKVGIPSDPLV [ALDH8A1] | 2.53 ± 0.85 | 2.05 ± 0.2 | – | – |
| SEGELGGPSEPGGTHPEDHQGHSD [RHOBTB2] | 5.54 ± 0.32 | 5.49 ± 0.29 | – | – |
| SELPPPMERTGGIGDSRPPSFHPH [DVL3] | 4.55 ± 0.25 | 4.61 ± 0.09 | – | – |
| SESMENINSGYETRRKKGKKDKDI [KMT2E] | 5.01 ± 0.33 | 5.39 ± 0.42 | – | – |
| SEVTELRRVLQGLEIELQSQLSMK [KRT16] | 2.33 ± 0.2 | 2.33 ± 0.31 | – | – |
| SFAELFSFMLQDRAKGLLGTTVTF [FEM1C] | 2.79 ± 0.56 | 3.21 ± 0.84 | – | – |
| SFGLRFGKREAAPGNHGRSAGRG [KISS1] | – | – | 3.23 ± 0.21 | 2.64 ± 0.45 |
| SGESGLRRRGSDPASGEVEASQLR [TMEM40] | 5.56 ± 0.11 | 5.51 ± 0.22 | – | – |
| SGPEEPLLEEEEKQWGPLEREPVR [RTN2] | 5.51 ± 0.21 | 5.47 ± 0.34 | – | – |
| SGSRHPPWARGCGMFTFLSSVTAA [SLC2A12] | 2.48 ± 0.43 | 2.38 ± 0.62 | – | – |
| SHQELHRELLMNHRRGLGVDSKPE [FAM107A] | 4.61 ± 0.22 | 4.57 ± 0.2 | – | – |
| SIARLEMGPDEYEEMEEEEEEEEE [FBXO3] | 5.41 ± 0.26 | 5.62 ± 0.28 | – | – |
| SIFGICMVFSGLCPLLLGSVMAIE [PTGFR] | 3.36 ± 0.43 | 3.09 ± 0.84 | – | – |
| SISASSARFVSSGSGGGYGGGMRV [KRT15] | 3.02 ± 0.22 | 3.55 ± 0.23 | – | – |
| SISELKHALSGHAKVKPFDPKITC [TPH1] | 2.77 ± 0.45 | 2.93 ± 0.37 | – | – |
| SIWAQNQVENWSAFAPDFKELDEN [RBBP5] | 4.26 ± 0.26 | 4.23 ± 0.23 | – | – |
| SKFKKLMKQGGAALEGSALANGRA [DLX1] | 3.78 ± 0.34 | 4 ± 0.26 | – | – |
| SKLVESGIQFMDEPEMAVFLQNAK [TRIM55] | 3.71 ± 0.34 | 4.01 ± 0.21 | – | – |
| SLAYCLACGGGHLLPYFYIIYMAI [DHCR7] | 2.6 ± 0.64 | 2.45 ± 0.31 | – | – |

| Sequence | protein stability index [1] | protein stability index [2] | protein stability index [3] | protein stability index [4] |
| --- | --- | --- | --- | --- |
| SLEQANRSLQLRIQELELQAQIHG [TFE3] | 3.51 ± 0.33 | 3.52 ± 0.19 | – | – |
| SLERGTALFAQVQRGALPAPDPEL [RSAD1] | 4.18 ± 0.45 | 4.41 ± 0.38 | – | – |
| SLLAGTADGSLRMDDPKGDFITLY [M1AP] | 2.51 ± 0.22 | 2.44 ± 0.52 | – | – |
| SLNLSTEFISSTKRPYAKELETVD [SERPINB5] | 3.69 ± 0.14 | 3.82 ± 0.21 | – | – |
| SLNPDGYEKAYEGGSELGGWSLGR [CPXM2] | – | 4.29 ± 0.39 | – | – |
| SLSDLEIQASAGVISKKAKVKVPQ [ZNF75A] | 4.44 ± 0.21 | 4.55 ± 0.14 | – | – |
| SLVIGALLASLTGGVLIDRYGRRT [SLC2A12] | 2.89 ± 0.45 | 3.03 ± 0.42 | – | – |
| SMWTRPQIKDFKEKIQQDADSVIT [ACBD3] | 3.88 ± 0.2 | 4.08 ± 0.42 | – | – |
| SNMCINNTLVCNGLQNCVYPWDEN [NETO1] | 3.29 ± 0.082 | 3.36 ± 0.44 | – | – |
| SNYIFVAIFWIVFLLLIVFYTAIT [P2RY14] | 2.26 ± 0.26 | 2.1 ± 0.41 | – | – |
| SPEALSLGEVAYHDYHGILVDEEE [ADD1] | 5.58 ± 0.27 | 5.54 ± 0.13 | – | – |
| SPQFEGPLSPPPINYNGIFSLKQE [NEUROD6] | 3.96 ± 0.11 | 4.05 ± 0.17 | – | – |
| SPSPMDPHMAEQTFEQAIQAASRI [CDC25B] | 4.68 ± 0.16 | 4.56 ± 0.25 | – | – |
| SPSTLIGSLRTLELGSESQGASES [HDAC6] | 5.08 ± 0.29 | 4.92 ± 0.33 | – | – |
| SQFHSVRPQGPQLRQQQHKQNKQV [DNAJC4] | 4.85 ± 0.12 | 4.87 ± 0.13 | – | – |
| SQGAISEGAQRDRFPGRKQPGVHE [C22orf31] | 5.05 ± 0.095 | 5.1 ± 0.18 | – | – |
| SQGQWGRAWEVDWFSLASVIFLLL [DHCR7] | 2.68 ± 0.033 | 2.39 ± 0.48 | – | – |
| SQQQPLRNQVVSSTNGELNVDDPT [CSNK1G1] | 5.36 ± 0.24 | 5.27 ± 0.2 | – | – |
| SQSILPLEHGSIYIPSSYVDSHHE [ESR2] | 3.96 ± 0.19 | 3.95 ± 0.17 | – | – |
| SQYIAVEAAEGRNKNEVFYQCPDQ [FBXO3] | 4.46 ± 0.061 | 4.74 ± 0.094 | – | – |
